Measurements taken from paper PMC3078060 (Molecular Biology of the Cell, 2011).

Columns and labels:
Assay in all cases: pull-down
His6-Vps39–860Δ = biological target: T1, His6-Vps39–860Δ (S. cerevisiae, UniProt Q07468 1-860)
T1 sequence: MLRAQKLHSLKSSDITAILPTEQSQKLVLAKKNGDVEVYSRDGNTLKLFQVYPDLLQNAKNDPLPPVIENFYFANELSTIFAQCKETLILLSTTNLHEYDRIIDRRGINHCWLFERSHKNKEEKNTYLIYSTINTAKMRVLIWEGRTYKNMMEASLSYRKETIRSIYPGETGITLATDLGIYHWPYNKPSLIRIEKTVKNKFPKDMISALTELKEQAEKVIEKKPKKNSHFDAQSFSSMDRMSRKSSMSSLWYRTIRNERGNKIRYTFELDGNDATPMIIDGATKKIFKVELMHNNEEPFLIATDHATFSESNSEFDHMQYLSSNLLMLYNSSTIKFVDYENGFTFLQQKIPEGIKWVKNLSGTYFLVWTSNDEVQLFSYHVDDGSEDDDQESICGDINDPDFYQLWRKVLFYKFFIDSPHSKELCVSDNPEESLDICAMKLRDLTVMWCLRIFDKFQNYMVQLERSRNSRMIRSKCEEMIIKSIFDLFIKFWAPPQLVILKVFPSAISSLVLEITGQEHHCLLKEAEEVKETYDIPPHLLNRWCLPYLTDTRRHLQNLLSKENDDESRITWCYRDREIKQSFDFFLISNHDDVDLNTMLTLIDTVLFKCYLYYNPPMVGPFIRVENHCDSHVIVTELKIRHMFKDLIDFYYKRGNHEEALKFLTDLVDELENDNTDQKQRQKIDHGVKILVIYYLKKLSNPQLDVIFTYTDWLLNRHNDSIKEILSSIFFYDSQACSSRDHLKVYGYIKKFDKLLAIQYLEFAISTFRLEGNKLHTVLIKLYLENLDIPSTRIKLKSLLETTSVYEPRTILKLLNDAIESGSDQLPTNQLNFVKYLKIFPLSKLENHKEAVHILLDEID

His6-Vps41 = biological target: T2, His6-Vps41 (S. cerevisiae, UniProt P38959 1-992)
T2 sequence: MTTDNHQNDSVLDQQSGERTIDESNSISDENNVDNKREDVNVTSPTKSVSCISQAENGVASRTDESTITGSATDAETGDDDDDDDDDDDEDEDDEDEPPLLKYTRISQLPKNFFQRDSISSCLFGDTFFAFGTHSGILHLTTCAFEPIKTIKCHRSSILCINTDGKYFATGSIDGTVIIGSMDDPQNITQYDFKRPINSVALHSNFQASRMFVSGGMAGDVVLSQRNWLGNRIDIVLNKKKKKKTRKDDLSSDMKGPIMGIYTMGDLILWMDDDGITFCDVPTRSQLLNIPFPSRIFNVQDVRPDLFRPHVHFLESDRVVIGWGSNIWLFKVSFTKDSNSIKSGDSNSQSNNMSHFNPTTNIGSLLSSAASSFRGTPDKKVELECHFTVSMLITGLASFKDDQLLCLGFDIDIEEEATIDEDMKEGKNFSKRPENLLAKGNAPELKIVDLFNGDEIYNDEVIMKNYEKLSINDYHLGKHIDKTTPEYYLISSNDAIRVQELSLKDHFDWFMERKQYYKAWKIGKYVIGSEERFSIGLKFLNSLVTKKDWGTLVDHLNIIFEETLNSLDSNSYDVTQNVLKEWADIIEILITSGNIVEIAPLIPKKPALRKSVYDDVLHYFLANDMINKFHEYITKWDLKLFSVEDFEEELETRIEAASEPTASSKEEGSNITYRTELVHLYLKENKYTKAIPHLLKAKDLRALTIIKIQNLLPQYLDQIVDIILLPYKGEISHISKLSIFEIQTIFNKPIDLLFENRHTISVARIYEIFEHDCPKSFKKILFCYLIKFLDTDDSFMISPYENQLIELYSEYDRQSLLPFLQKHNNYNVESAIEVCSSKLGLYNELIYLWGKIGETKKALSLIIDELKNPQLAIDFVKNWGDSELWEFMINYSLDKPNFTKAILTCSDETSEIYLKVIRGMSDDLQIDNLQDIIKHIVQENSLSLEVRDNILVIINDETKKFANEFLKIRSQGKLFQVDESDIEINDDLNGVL

His6-Vps3 = biological target: T3, His6-Vps3 (S. cerevisiae, UniProt P23643 1-1011)
T3 sequence: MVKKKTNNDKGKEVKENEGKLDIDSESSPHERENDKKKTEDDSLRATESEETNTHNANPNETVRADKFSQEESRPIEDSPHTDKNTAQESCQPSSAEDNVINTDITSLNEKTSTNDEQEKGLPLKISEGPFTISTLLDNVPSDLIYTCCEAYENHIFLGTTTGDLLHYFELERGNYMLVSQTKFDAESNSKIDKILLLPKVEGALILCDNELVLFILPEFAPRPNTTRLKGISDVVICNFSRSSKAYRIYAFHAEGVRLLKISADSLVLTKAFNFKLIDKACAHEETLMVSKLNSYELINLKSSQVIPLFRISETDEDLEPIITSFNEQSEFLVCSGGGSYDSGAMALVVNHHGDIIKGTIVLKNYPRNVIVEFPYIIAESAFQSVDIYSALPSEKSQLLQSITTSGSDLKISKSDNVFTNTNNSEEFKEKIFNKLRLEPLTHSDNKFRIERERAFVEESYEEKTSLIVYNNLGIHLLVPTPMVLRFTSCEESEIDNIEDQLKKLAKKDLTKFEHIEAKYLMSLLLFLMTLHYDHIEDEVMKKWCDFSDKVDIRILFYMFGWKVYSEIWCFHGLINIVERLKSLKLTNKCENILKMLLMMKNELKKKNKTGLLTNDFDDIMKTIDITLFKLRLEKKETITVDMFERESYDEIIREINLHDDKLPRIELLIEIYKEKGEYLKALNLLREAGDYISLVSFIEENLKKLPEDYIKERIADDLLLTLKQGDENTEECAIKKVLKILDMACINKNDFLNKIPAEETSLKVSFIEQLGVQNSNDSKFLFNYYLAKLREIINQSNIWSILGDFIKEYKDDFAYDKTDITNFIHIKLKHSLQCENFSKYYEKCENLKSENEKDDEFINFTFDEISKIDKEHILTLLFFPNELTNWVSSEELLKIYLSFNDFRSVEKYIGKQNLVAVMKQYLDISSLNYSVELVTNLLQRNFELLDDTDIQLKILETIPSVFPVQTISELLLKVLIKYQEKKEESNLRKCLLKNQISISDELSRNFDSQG

B1: GST-Ypt7 (natural protein)
chain: MSSRKKNILKVIILGDSGVGKTSLMHRYVNDKYSQQYKATIGADFLTKEVTVDGDKVATMQVWDTAGQERFQSLGVAFYRGADCCVLVYDVTNASSFENIKSWRDEFLVHANVNSPETFPFVILGNKIDAEESKKIVSEKSAQELAKSLGDIPLFLTSAKNAINVDTAFEEIARSALQQNQADTEAFEDDYNDAINIRLDGENNSCSC
- binding result (His6-Vps39–860Δ): binds
- binding result (His6-Vps41): binds

B2: GST-Vps21 (natural protein)
chain: MNTSVTSIKLVLLGEAAVGKSSIVLRFVSNDFAENKEPTIGAAFLTQRVTINEHTVKFEIWDTAGQERFASLAPMYYRNAQAALVVYDVTKPQSFIKARHWVKELHEQASKDIIIALVGNKIDMLQEGGERKVAREEGEKLAEEKGLLFFETSAKTGENVNDVFLGIGEKIPLKTAEEQNSASNERESNNQRVDLNAANDGTSANSACSC
- binding result (His6-Vps3): binds
